From US20240101695A1 (University of California, published 2024)
One block for each binder: values may come before it.

What was measured:
[1] = biological target: T1, human transferrin receptor 1 (TfR1) (human, UniProt P02786 1-760); assay: flow cytometry on MM.1S cells expressing TfR1
T1 construct: whole, on cells; Endogenous antigen on MM.1S cells; also called transferrin receptor protein 1; CD71
Protocol: Human MM cells (MM.1S) expressing TfR1 were incubated with either IgE isotype control (non-targeting control) or anti-TfR1 IgE. The rat basophilic leukemia cells RBL SX-38 expressing human FcεRI were incubated with either IgE isotype control or anti-TfR1 IgE. Antibody binding was detected using a PE-conjugated mouse IgG1 anti-human IgE antibody. Grey filled histograms represent cells incubated with secondary antibody only (“no antibody”). Empty black line histograms represent cells incubated with primary antibodies (IgE isotype control or anti-TfR1 IgE).
(§1) Antigen binding of the anti-CD38 IgE, anti-CD138 IgE, and anti-TfR1 IgE antibodies was studied by flow cytometry using the human multiple myeloma (MM) cell line MM.1S purchased from the American Type Culture Collection (ATCC, Manassas, VA, USA; ATCC® CRL-2974™). […] Binding to FcεRI was also assessed by flow cytometry using the rat basophilic leukemia cell line RBL SX-38 expressing human FcεRI¹¹³ kindly provided by Dr. Jean-Pierre Kinet (Beth Israel Deaconess Medical Center, Boston, MA, USA). […] Samples were analyzed on a BD LSRII analytical flow cytometer (BD Biosciences, San Jose, CA, USA) and 10,000 events were collected. […]

human FcεRI = biological target: T2, human FcεRI (human, UniProt P12319 26-257); assay: flow cytometry on RBL SX-38 cells expressing human FcεRI
T2 construct: whole, on cells; Multi-subunit receptor; In the PCA assay it is the humanized FcεRI of transgenic huFcεRI mice; also called huFcεRI
T2 sequence (looked up): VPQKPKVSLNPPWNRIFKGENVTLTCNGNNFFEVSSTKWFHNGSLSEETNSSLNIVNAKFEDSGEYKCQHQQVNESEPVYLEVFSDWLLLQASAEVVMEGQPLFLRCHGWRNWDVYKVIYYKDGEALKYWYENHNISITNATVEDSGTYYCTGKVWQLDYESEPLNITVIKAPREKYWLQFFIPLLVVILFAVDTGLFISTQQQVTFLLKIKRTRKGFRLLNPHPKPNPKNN
Protocol: Human MM cells (MM.1S) expressing CD138 were incubated with either IgE isotype control (non-targeting control), anti-CD138 IgG1, or anti-CD138 IgE. The rat basophilic leukemia cells RBL SX-38 expressing human FcεRI were incubated with either IgE isotype control, anti-CD138 IgG1, or anti-CD138 IgE. Antibody binding was detected using a PE-conjugated goat F(ab′)₂ anti-human κ antibody. Grey line histograms represent cells incubated with secondary antibody only (“no antibody”). Black line histograms represent cells incubated with primary antibodies (IgE isotype control, anti-CD138 IgG1, or anti-CD138 IgE).
Human MM cells (MM.1S) expressing TfR1 were incubated with either IgE isotype control (non-targeting control) or anti-TfR1 IgE. […] Antibody binding was detected using a PE-conjugated mouse IgG1 anti-human IgE antibody. […]
Antigen binding of the anti-CD38 IgE, anti-CD138 IgE, and anti-TfR1 IgE antibodies was studied by flow cytometry using the human multiple myeloma (MM) cell line MM.1S purchased from the American Type Culture Collection (ATCC, Manassas, VA, USA; ATCC® CRL-2974™). […] Binding to FcεRI was also assessed by flow cytometry using the rat basophilic leukemia cell line RBL SX-38 expressing human FcεRI¹¹³ kindly provided by Dr. Jean-Pierre Kinet (Beth Israel Deaconess Medical Center, Boston, MA, USA). […]

human CD138 = biological target: T3, human CD138 (human, UniProt P18827 23-310); assay: flow cytometry on MDA-MB-468 and SK-BR-3 cells expressing CD138
T3 construct: whole, on cells; Endogenous antigen on MM.1S, MDA-MB-468 and SK-BR-3 cells; also called syndecan-1
T3 sequence (looked up): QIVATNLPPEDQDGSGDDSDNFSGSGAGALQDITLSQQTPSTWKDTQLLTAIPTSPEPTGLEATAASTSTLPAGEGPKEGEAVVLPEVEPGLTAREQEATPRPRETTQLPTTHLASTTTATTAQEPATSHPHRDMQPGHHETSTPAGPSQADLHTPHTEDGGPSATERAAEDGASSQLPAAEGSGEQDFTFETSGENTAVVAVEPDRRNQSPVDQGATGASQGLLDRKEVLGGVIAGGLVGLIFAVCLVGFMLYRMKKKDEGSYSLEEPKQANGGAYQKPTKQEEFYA
Protocol: Human triple negative breast cancer (TNBC) cells (MDA-MB-468) and human HER2/neu positive breast cancer cells (SK-BR-3) expressing CD138 were incubated with either IgE isotype control (non-targeting control) or anti-CD138 IgE. Antibody binding was detected using a PE-conjugated goat F(ab′)₂ anti-human κ antibody. Grey filled histograms represent cells incubated with secondary antibody only (“no antibody”). Empty black line histograms represent cells incubated with primary antibodies (IgE isotype control or anti-CD138 IgE).
as §1

T1 sequence (P02786 whole entry): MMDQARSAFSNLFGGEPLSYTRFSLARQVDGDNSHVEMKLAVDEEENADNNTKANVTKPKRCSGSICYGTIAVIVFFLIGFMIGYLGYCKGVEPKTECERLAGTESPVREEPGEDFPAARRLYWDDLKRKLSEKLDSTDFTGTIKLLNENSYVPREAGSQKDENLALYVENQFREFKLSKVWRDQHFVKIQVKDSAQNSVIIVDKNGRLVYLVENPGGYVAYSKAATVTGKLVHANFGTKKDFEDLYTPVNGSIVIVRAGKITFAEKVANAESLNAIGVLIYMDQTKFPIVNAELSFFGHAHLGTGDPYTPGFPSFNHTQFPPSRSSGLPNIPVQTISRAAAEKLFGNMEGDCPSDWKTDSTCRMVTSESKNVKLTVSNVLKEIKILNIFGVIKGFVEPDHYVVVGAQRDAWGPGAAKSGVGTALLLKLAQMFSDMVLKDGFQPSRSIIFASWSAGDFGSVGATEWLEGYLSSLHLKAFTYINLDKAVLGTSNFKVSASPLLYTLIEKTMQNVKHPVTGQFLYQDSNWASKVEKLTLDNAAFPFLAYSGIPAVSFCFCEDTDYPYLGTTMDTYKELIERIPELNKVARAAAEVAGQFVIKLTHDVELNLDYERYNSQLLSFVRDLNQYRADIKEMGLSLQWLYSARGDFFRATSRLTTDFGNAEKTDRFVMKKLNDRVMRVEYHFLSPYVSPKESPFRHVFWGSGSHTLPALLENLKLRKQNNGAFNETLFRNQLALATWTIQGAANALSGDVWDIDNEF

binding result [1]: binds
binding result (human FcεRI): binds
B1: anti-TfR1 IgE (antibody)
heavy: EVQLQQSGPELVKPGASMKISCKASGYSFTGYTMNWVKQSHGENLEWIGRINPHNGGTDYNQKFKDKAPLTVDKSSNTAYMELLSLTSGDSAVYYCARGYYYYSLDYWGQGTSVTVSSASTQSPSVFPLTRCCKNIPSNATSVTLGCLATGYFPEPVMVTWDTGSLNGTTMTLPATTLTLSGHYATISLLTVSGAWAKQMFTCRVAHTPSSTDWVDNKTFSVCSRDFTPPTVKILQSSCDGGGHFPPTIQLLCLVSGYTPGTINITWLEDGQVMDVDLSTASTTQEGELASTQSELTLSQKHWLSDRTYTCQVTYQGHTFEDSTKKCADSNPRGVSAYLSRPSPFDLFIRKSPTITCLVVDLAPSKGTVNLTWSRASGKPVNHSTRKEEKQRNGTLTVTSTLPVGTRDWIEGETYQCRVTHPHLPRALMRSTTKTSGPRAAPEVYAFATPEWPGSRDKRTLACLIQNFMPEDISVQWLHNEVQLPDARHSTTQPRKTKGSGFFVFSRLEVTRAEWEQKDEFICRAVHEAASPSQTVQRAVSVNPGK
light: QIVLTQSPAIMSVSPGEKVTMTCSASSSIRYIHWYQQRPGTSPKRWIYDTSNLASGVPARFSGSGSGTSYSLTISSMEAEDAATYYCHQRNSYPWTFGGGTRLEIRRTVAAPSVFIFPPSDEQLKSGTASVVCLLNNFYPREAKVQWKVDNALQSGNSQESVTEQDSKDSTYSLSSTLTLSKADYEKHKVYACEVTHQGLSSPVTKSFNRGEC
notes: Mouse/human chimeric IgE; also called TfR1-Targeted Antibody; anti-TfR1 IgE antibody

binding result (human FcεRI): binds
binding result (human CD138): binds
B2: anti-CD138 IgE (antibody)
heavy: QVQLQQSGSELMMPGASVKISCKATGYTFSNYWIEWVKQRPGHGLEWIGEILPGTGRTIYNEKFKGKATFTADISSNTVQMQLSSLTSEDSAVYYCARRDYYGNFYYAMDYWGQGTSVTVSSASTQSPSVFPLTRCCKNIPSNATSVTLGCLATGYFPEPVMVTWDTGSLNGTTMTLPATTLTLSGHYATISLLTVSGAWAKQMFTCRVAHTPSSTDWVDNKTFSVCSRDFTPPTVKILQSSCDGGGHFPPTIQLLCLVSGYTPGTINITWLEDGQVMDVDLSTASTTQEGELASTQSELTLSQKHWLSDRTYTCQVTYQGHTFEDSTKKCADSNPRGVSAYLSRPSPFDLFIRKSPTITCLVVDLAPSKGTVNLTWSRASGKPVNHSTRKEEKQRNGTLTVTSTLPVGTRDWIEGETYQCRVTHPHLPRALMRSTTKTSGPRAAPEVYAFATPEWPGSRDKRTLACLIQNFMPEDISVQWLHNEVQLPDARHSTTQPRKTKGSGFFVFSRLEVTRAEWEQKDEFICRAVHEAASPSQTVQRAVSVNPGK
light: DIQMTQSTSSLSASLGDRVTISCSASQGINNYLNWYQQKPDGTVELLIYYTSTLQSGVPSRFSGSGSGTDYSLTISNLEPEDIGTYYCQQYSKLPRTFGGGTKLEIKRTVAAPSVFIFPPSDEQLKSGTASVVCLLNNFYPREAKVQWKVDNALQSGNSQESVTEQDSKDSTYSLSSTLTLSKADYEKHKVYACEVTHQGLSSPVTKSFNRGEC
notes: Mouse/human chimeric IgE; also called CD138-Targeted Antibody; anti-CD138 IgE antibody
